Key:
[1] = substrate: OC[C@H]1OC(O)[C@H](O)[C@@H](O)[C@@H]1O; experiment: Coupled active sites, HOCl production from glucose, all other chimeras; assay type: biochemical, Rhodopirellula baltica / Penicillium amagasakiens; conditions: glucose as substrate, pH 7.5
Description: (§1) Each experiment was performed in triplicate.
(§2) The activity of the two active sites was then assessed in conjunction to each other (FIG. 1).
(§3) Briefly, the aim was to measure the production of HOCl from glucose and NaCl as respective substrates of the enzymes, using the APF probe. Two types of kinetics were performed: • i) kinetics at various concentrations of glucose and a fixed concentration of NaCl, and • ii) kinetics at various concentration of NaCl and a fixed concentration of glucose.

[2] = substrate: OC[C@H]1OC(O)[C@H](O)[C@@H](O)[C@@H]1O; experiment: Coupled active sites, HOCl production from glucose, APF assay (Table 9), linker LEKREAEA; assay type: biochemical, Rhodopirellula baltica / Penicillium amagasakiens; conditions: other: trimer; fixed NaCl 20 mM, pH7.5; pH 7.5
Description: as §1, §2, §3

Row | Protein | kcat/Km [1] | Km [2] | kcat [2] | kcat/Km [2]
1 | RbMPO-GOx chimeras, all other chimeras (Penicillium amagasakiense) (protein, pET21a, E. coli; heme and FAD reconstituted; GOx mature part (P81156 19-605)) YLPAQQIDVQSSLLSDPSKVAGKTYDYIIAGGGLTGLTVAAKLTENPKIKVLVIEKGFYESNDGAIIEDPNAYGQIFGTTVDQNYLTVPLINNRTNNIKAGKGLGGSTLINGDSWTRPDKVQIDSWEKVFGMEGWNWDNMFEYMKKAEAARTPTAAQLAAGHSFNATCHGTNGTVQSGARDNGQPWSPIMKALMNTVSALGVPVQQDFLCGHPRGVSMIMNNLDENQVRVDAARAWLLPNYQRSNLEILTGQMVGKVLFKQTASGPQAVGVNFGTNKAVNFDVFAKHEVLLAAGSAISPLILEYSGIGLKSVLDQANVTQLLDLPVGINMQDQTTTTVSSRASSAGAGQGQAVFFANFTETFGDYAPQARDLLNTKLDQWAEETVARGGFHNVTALKVQYENYRNWLLDEDVAFAELFMDTEGKINFDLWDLIPFTRGSVHILSSDPYLWQFANDPKFFLNEFDLLGQAAASKLARDLTSQGAMKEYFAGETLPGYNLVQNATLSQWSDYVLQNFRPNWHAVSSCSMMSRELGGVVDATAKVYGTQGLRVIDGSIPPTQVSSHVMTIFYGMALKVADAILDDYAKSA | 1 M⁻¹ s⁻¹ | – | – | –
2 | RbMPO-LEKREAEA-GOx chimera (Rhodopirellula baltica myeloperoxidase, SEQ ID NO: 10; linker SEQ ID NO: 7; Penicillium amagasakiens glucose oxidase, SEQ ID NO: … (protein, 6His (in the pET21a vector behind the XhoI site); made in house; host or cells: E. coli BL21Star (DE3)) MLFWSKRTRKHPGRKRRRLRSEQLESRQLLAADFGGYRHNIYDAEDVNDDGRVSAIDALLVINAMTSETSRDENVFTDVNGDGRRSALDALRVINRIERGDVFPIDTSGDEDLNTLLPEMPSEVRSIDGSGNNPNDHLWGSVGQRLIRMAPAAYGDGISTLAGANRPSAREVSNVLSAMNTSQVLNDRGLSAFVYVWGQFIDHDLGLTESDEHGEAIDISVPEGDLWFDPMGSGEAVIPMTRTPIADGTGTSVGNPAQQFNQITAFIDGSMVYGSDAATAERLRTFAGGRLAISDNGLLPMDESGMVIAGDVRASENVGLTAIQTLFVREHNRLADEIFAADPEATDEEIYQRARLVVASLIQSITYNEFLPALLGQRAMDSYRGYDASVNPGIANEFSTAAFRLGHSTLRDEVGFMSNDGRESKDEMELKDAFFHASMLEETGIDSLLKFDASVQAQEIDLAVVDSLRNFLFGPPGAGGLDLVAMNIQRGRDHGLSDYNTTRQAYGLDRVETFDQITGDVELQQKLASLYGTVDNIDLWVGLMAEDHQHDASVGELTGLIIADQFQRTRDGDRFFYKNVLTDSEVESIERSTLADLIERNTSVDGLQENVFFMQVELRGRVILASSIPPNTMPSEVREEEIRGVSGMAIELIDASGKLVDSTVSDQHGNYRFRALSETGDYQVRLSESGEAMDVLVAHGAERIRGLDFIVLALEKREAEAYLPAQQIDVQSSLLSDPSKVAGKTYDYIIAGGGLTGLTVAAKLTENPKIKVLVIEKGFYESNDGAIIEDPNAYGQIFGTTVDQNYLTVPLINNRTNNIKAGKGLGGSTLINGDSWTRPDKVQIDSWEKVFGMEGWNWDNMFEYMKKAEAARTPTAAQLAAGHSFNATCHGTNGTVQSGARDNGQPWSPIMKALMNTVSALGVPVQQDFLCGHPRGVSMIMNNLDENQVRVDAARAWLLPNYQRSNLEILTGQMVGKVLFKQTASGPQAVGVNFGTNKAVNFDVFAKHEVLLAAGSAISPLILEYSGIGLKSVLDQANVTQLLDLPVGINMQDQTTTTVSSRASSAGAGQGQAVFFANFTETFGDYAPQARDLLNTKLDQWAEETVARGGFHNVTALKVQYENYRNWLLDEDVAFAELFMDTEGKINFDLWDLIPFTRGSVHILSSDPYLWQFANDPKFFLNEFDLLGQAAASKLARDLTSQGAMKEYFAGETLPGYNLVQNATLSQWSDYVLQNFRPNWHAVSSCSMMSRELGGVVDATAKVYGTQGLRVIDGSIPPTQVSSHVMTIFYGMALKVADAILDDYAKSA | – | 10.62 ± 8.25 mM | 0.000109 s⁻¹ | 0.01 ± 0.011 M⁻¹ s⁻¹

From patent US20260201347A1, “ARTIFICIAL BIFUNCTIONAL ENZYME COMPRISING A MYELOPEROXIDASE ACTIVITY AND A GLUCOSE OXIDASE ACTIVITY AND APPLICATIONS THEREOF” (UNIVERSITÉ DE BORDEAUX, priority 2022, published 2026)
